From article PMC3828344 come the findings set out here.

The target of data set [1] is T1, murine norovirus particle (capsid of 180 VP1) (Murine norovirus 1 (MNV-1, clone CW-1)) (UniProt B7XA03).
T1 sequence: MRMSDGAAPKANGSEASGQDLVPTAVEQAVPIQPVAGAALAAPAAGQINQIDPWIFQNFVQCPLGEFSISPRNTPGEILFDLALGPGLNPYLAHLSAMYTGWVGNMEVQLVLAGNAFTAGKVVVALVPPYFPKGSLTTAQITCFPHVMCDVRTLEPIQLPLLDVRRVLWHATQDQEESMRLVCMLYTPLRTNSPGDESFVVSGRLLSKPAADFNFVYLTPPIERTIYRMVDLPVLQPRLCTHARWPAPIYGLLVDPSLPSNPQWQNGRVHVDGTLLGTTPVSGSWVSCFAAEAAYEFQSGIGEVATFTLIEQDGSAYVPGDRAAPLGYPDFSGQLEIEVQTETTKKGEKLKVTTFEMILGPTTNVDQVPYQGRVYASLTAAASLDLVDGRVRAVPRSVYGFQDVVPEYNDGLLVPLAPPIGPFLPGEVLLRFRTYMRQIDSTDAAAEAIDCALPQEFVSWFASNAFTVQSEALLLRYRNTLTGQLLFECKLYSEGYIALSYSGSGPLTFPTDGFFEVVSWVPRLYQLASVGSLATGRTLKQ
The data set can be described thus: filter binding (polycarbonate).

The target of data set [2] is T1, murine norovirus particle (capsid of 180 VP1) (Murine norovirus 1 (MNV-1, clone CW-1)). The data set can be described thus: electrochemical aptasensor (SWV). Conditions: thiol (end not stated in material); GSB: 50 mM NaCl, 20 mM Tris-HCl pH 7.4, 3 mM MgCl2, 5 mM KCl, room temperature (anisotropy ~1 h; filter 24 h); aptasensor: Dulbecco's PBS, 25 C, 1 h.

The sequence “GCTAGCGAATTCCGTACGAAGGGCGAATTCCACATTGGGCTGCAGCCCGGGGGATCC [AG3]” had a K half in data set [1] of 0.1 pM.

As for “GCTAGCGAATTCCGTACGAAGGGCGAATTCCACATTGGGCTGCAGCCCGGGGGATCC [thiolated AG3 (aptasensor)]”, the binding signal (% of current decrease (110.6 to 34.6 uA)) in data set [2] was determined as 100.
